From US4029771A, “Composition for the treatment of bacterial-intestinal infections” (priority 1975, dated 1977)

How the values were obtained:
[1] = system: male and female rat (Sprague-Dawley); assay: Acute toxicity on single administration, male and female rat (Sprague-Dawley); format: in vivo; conditions: for Mortality after 7 days: 1000 mg/kg single dose, 10 rats per dose; for LD50: single administration, 7 days
Procedure: (a) Toxicity on single administration.
The experiment was conducted on rats and mice (male and female) by oral and intraperitoneal administration of conalbumen dissolved in double-distilledsterile water. The animals were kept under control for 7 days following the administration.
Acute toxicity of the product after a single admini-
stration to the male and female rat (Sprague-Dawley).

[2] = system: children affected by acute initial gastroenteropathy; assay: Clinical efficacy test in 32 children with acute initial gastroenteropathy vs chemiantibiotic group; format: in vivo
Procedure: The tests were conducted on a group of 32 children (14 males, 18 females) of an age group comprised between 2 months and 2 years, affected by acute initial gastroenteropathy.
The test group comprised forms of substantial gravity (15.6% of the total cases), forms of intermediate gravity (43.7%), and finally forms of least gravity (40.6%), determined by known clinical diagnostic methods.
In all cases, in addition to the oral or parental rehydration (in 21.8% of the cases there was actually performed a parental rehydration with glucosaline and polyelectric solutions) and to the usual dietetic treatment, there was performed symptomatic therapy with anticholinergic agents.
The product was administered orally to all the test subjects at a dosage of 300 mg. per day, divided into three equal doses.
The duration of the therapy varied from a minimum of 5 days to a maximum of 10 days.
It was thought opportune, on a clinical plane, to evaluate the test results according to the following parameters:
(1) average time of normalization of the abdomen.
(2) number and percentage of the cases with regularization of the abdomen within the first 48 hours (see Table II and figure 1).
(3) average duration of the time of therapy.
There was further compared the test subjects with a group of subjects of similar age and equally affected by acute initial gastroenteropathy which had received, in addition to the usual symptomatic and dietetic therapy, a chemiantibiotic treatment.
It is important to note that this second group presented a clinical physionomy similar to that of the test group (and therefore with a percentage division equal between forms of different gravity) and further belonging chronologically to the same epidemiological period.

[3] = system: germs which are pathogenic to man; assay: Treatment of experimental infections in laboratory animals; format: in vivo; conditions: laboratory animals injected with germs pathogenic to man
[4] = Storage stability of the liophylized product; format: physicochemical
experimental animals = assay: Tolerability in experimental animals at therapeutically active doses; format: in vivo
[5] = 32 cases per group, product oral 300 mg per day in three doses
[6] = percentage distribution, drawing
[7] = product vs chemiantibiotics group

B1: conalbumen: transferrin (ovotransferrin or conalbumen) extracted in a pure state from egg white (protein, UniProt P02789 20-705, looked up)
Ovotransferrin: APPKSVIRWCTISSPEEKKCNNLRDLTQQERISLTCVQKATYLDCIKAIANNEADAISLDGGQAFEAGLAPYKLKPIAAEVYEHTEGSTTSYYAVAVVKKGTEFTVNDLQGKTSCHTGLGRSAGWNIPIGTLLHRGAIEWEGIESGSVEQAVAKFFSASCVPGATIEQKLCRQCKGDPKTKCARNAPYSGYSGAFHCLKDGKGDVAFVKHTTVNENAPDQKDEYELLCLDGSRQPVDNYKTCNWARVAAHAVVARDDNKVEDIWSFLSKAQSDFGVDTKSDFHLFGPPGKKDPVLKDLLFKDSAIMLKRVPSLMDSQLYLGFEYYSAIQSMRKDQLTPSPRENRIQWCAVGKDEKSKCDRWSVVSNGDVECTVVDETKDCIIKIMKGEADAVALDGGLVYTAGVCGLVPVMAERYDDESQCSKTDERPASYFAVAVARKDSNVNWNNLKGKKSCHTAVGRTAGWVIPMGLIHNRTGTCNFDEYFSEGCAPGSPPNSRLCQLCQGSGGIPPEKCVASSHEKYFGYTGALRCLVEKGDVAFIQHSTVEENTGGKNKADWAKNLQMDDFELLCTDGRRANVMDYRECNLAEVPTHAVVVRPEKANKIRDLLERQEKRFGVNGSEKSKFMMFESQNKDLLFKDLTKCLFKVREGTTYKEFLGDKFYTVISSLKTCNPSDILQMCSFLEGK
Mortality after 7 days ([1]; female 90-105 g, oral): 0/10
LD50 ([1]; female 90-105 g, oral): > 1000 mg/kg
Mortality after 7 days ([1]; female 100-110 g, i.p.): 0/10
LD50 ([1]; female 100-110 g, i.p.): > 1000 mg/kg
Mortality after 7 days ([1]; male 100-120 g, i.p.): 0/10
LD50 ([1]; male 100-120 g, i.p.): > 1000 mg/kg
Mortality after 7 days ([1]; male 100-130 g, oral): 0/10
LD50 ([1]; male 100-130 g, oral): > 1000 mg/kg
Average time of Therapy [2, 5]: 6,1 days
Percentage normalization within 48 hours [2, 5]: 53,1 Percentage
Average time of normalization of the abdomen ([2]; 32 cases per group, product oral 300 mg per day in three doses, p <0,40): 2,56
No. of cases with normalization within 48 hours ([2]; of 32 cases per group, product oral 300 mg per day in three doses): 17
Clinical results ([2]; overall): very favorable
Clinical results with respect to the group treated with chemiantibiotics ([2]; overall comparison): definitely better
Distribution in the time of normalization of the abdomen, days with most cases [2, 6]: between the second and third day
Peak in the time of normalization of the abdomen [2, 6]: second day
Average time of normalization of the abdomen, comparison with chemiantibiotics [2, 7]: slightly lower
Number of cases and percentage of normalization of the abdomen within the first 48 hours, comparison with chemiantibiotics [2, 7]: higher
Efficacy in experimental infections [3]: surprising efficacy
Maintains its properties unchanged ([4]; liophylized, kept at ambient or lower temperature): at least 6 months
Period for which the product can be kept ([4]; vials containing 100 mg. or more, liophylized form): indefinite periods
Toxic manifestation or significant side effects (experimental animals): does not result in toxic manifestation or in significant side effects
